These results are taken from patent US20150344570A1 (published 2015).

The labels stand for the following.
T1: FcγRIIb extracellular domain with C-terminal His tag (human, UniProt P31994 43-217)
T1 construct: extracellular domain; Soluble receptor expressed in FreeStyle293 cells, used as analyte in Biacore; also called FcgRIIb; 2b; not shown: His tag attached to the C terminus
T1 sequence (looked up): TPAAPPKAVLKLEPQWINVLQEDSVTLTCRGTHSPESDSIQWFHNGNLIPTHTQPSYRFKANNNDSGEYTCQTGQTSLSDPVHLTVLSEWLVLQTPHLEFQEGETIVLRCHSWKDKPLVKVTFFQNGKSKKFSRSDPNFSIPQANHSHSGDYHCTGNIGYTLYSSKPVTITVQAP

B1: GpH7-A5/GpH7-B3 variant S267_20W/GpL16-k0 (antibody, human IgG1, kappa)
heavy 1: not shown
heavy 2: not shown
light: DIVMTQSPLSLPVTPGEPASISCQASESLVHSNRNTYLHWYLQKPGQSPQLLIYKVSNRFSGVPDRFSGSGSGTDFTLKISRVEAEDVGVYYCSQNTHVPPTFGQGTKVEIERTVAAPSVFIFPPSDEQLKSGTASVVCLLNNFYPREAKVQWKVDNALQSGNSQESVTEQDSKDSTYSLSSTLTLSKADYEKHKVYACEVTHQGLSSPVTKSFNRGEC
notes: Heterodimerized antibody (He Ab) with the mutation in only one H chain; also called He Ab S267W
B2: GpH7-A5/GpH7-B3 variant S267_16H/GpL16-k0 (antibody, human IgG1, kappa)
heavy 1: not shown
heavy 2: not shown
light: B1 light
notes: Heterodimerized antibody (He Ab) with the mutation in only one H chain; also called He Ab S267H
B3: GpH7-A5/GpH7-B3 variant S267_19Q/GpL16-k0 (antibody, human IgG1, kappa)
heavy 1: not shown
heavy 2: not shown
light: B1 light
notes: Heterodimerized antibody (He Ab) with the mutation in only one H chain; also called He Ab S267Q
B4: GpH7-B3 variant S324_01G/GpL16-k0 (Ho Ab) (antibody, human IgG1, kappa)
heavy: not shown
light: B1 light
notes: Homodimerized anti-glypican-3 antibody; the alteration stands in both H chains
B5: GpH7-B3 variant S239_18N/GpL16-k0 (Ho Ab) (antibody, human IgG1, kappa)
heavy: not shown
light: B1 light
notes: as for B4
B6: GpH7-B3 variant S324_09D/GpL16-k0 (Ho Ab) (antibody, human IgG1, kappa)
heavy: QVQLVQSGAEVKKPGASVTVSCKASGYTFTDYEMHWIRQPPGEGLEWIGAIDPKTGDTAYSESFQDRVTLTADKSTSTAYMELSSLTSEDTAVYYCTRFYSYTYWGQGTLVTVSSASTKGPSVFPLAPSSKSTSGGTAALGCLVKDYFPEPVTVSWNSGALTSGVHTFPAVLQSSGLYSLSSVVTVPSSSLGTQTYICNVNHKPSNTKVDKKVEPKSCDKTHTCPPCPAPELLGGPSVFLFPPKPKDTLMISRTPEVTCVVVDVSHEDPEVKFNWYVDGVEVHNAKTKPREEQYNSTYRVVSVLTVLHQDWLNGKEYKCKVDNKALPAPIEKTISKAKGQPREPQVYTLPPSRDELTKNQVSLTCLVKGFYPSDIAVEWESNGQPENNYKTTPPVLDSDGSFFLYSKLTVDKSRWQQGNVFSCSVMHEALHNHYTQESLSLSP
light: B1 light
notes: as for B4
B7: GpH7-B3 variant T335_05P/GpL16-k0 (Ho Ab) (antibody, human IgG1, kappa)
heavy: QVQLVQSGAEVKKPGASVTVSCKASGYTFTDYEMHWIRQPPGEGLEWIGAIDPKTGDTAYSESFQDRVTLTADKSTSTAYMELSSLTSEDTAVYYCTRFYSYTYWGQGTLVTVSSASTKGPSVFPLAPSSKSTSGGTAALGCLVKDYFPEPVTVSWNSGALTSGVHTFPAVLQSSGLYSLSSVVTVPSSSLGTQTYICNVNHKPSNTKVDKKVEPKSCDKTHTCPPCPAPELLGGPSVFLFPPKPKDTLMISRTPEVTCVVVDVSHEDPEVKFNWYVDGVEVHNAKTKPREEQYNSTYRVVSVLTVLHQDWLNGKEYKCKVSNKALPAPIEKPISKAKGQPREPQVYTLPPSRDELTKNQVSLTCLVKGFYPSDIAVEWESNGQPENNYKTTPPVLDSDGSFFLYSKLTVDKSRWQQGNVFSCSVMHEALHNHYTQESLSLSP
light: B1 light
notes: as for B4
B8: GpH7-B3 variant S324_06M/GpL16-k0 (Ho Ab) (antibody, human IgG1, kappa)
heavy: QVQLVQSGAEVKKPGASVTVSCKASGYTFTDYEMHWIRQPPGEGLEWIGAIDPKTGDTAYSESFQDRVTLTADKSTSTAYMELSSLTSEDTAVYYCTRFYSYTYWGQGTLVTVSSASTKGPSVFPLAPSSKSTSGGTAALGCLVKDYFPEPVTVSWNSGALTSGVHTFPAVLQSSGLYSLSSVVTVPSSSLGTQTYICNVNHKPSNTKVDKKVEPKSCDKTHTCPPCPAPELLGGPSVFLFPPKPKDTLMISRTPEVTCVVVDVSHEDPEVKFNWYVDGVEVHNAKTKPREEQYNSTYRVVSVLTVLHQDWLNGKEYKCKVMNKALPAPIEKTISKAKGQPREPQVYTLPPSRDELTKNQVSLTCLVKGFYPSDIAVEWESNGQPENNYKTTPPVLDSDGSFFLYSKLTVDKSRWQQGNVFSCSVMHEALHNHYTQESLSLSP
light: B1 light
notes: as for B4
B9: GpH7-B3 variant S298_03V/GpL16-k0 (Ho Ab) (antibody, human IgG1, kappa)
heavy: not shown
light: B1 light
notes: as for B4
B10: GpH7-B3 variant S337_16H/GpL16-k0 (Ho Ab) (antibody, human IgG1, kappa)
heavy: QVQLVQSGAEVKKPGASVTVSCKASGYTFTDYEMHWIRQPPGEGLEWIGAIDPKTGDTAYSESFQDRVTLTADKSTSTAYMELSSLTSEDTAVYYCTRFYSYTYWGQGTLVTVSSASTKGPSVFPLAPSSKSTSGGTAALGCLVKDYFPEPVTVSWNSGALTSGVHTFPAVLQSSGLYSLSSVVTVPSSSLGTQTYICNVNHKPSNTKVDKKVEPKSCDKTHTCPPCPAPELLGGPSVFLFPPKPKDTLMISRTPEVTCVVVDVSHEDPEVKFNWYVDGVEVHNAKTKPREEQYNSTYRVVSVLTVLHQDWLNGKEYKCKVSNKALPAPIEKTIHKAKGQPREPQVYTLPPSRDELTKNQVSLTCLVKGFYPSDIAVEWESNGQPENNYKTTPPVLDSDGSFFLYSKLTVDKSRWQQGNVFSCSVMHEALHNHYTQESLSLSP
light: B1 light
notes: as for B4
B11: GpH7-B3 variant S337_01G/GpL16-k0 (Ho Ab) (antibody, human IgG1, kappa)
heavy: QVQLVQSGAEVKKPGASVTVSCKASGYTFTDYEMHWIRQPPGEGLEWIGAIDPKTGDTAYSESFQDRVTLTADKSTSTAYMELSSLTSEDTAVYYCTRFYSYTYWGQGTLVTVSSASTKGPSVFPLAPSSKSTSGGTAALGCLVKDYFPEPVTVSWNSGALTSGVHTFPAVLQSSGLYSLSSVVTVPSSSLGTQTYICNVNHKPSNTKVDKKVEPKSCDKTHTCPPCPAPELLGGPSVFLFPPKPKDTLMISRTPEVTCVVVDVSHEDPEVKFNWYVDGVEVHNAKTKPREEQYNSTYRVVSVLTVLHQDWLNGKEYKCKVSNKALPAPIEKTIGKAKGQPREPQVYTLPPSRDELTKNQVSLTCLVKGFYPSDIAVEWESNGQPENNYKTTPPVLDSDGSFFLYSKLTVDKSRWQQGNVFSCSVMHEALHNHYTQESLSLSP
light: B1 light
notes: as for B4
B12: GpH7-B3 variant T335_09D/GpL16-k0 (Ho Ab) (antibody, human IgG1, kappa)
heavy: not shown
light: B1 light
notes: as for B4
B13: GpH7-B3 variant S324_20W/GpL16-k0 (Ho Ab) (antibody, human IgG1, kappa)
heavy: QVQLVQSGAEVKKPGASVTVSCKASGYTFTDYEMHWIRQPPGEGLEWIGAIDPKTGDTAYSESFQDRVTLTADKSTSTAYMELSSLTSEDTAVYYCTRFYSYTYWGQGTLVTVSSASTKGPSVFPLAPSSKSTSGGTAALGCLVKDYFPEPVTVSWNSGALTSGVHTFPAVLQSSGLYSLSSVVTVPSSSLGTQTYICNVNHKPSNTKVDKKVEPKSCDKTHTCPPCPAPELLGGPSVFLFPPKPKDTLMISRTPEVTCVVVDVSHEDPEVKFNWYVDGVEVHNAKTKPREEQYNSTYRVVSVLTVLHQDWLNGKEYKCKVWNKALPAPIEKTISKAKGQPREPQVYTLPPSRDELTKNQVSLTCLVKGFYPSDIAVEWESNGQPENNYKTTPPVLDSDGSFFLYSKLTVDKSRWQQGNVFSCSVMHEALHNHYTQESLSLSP
light: B1 light
notes: as for B4
B14: GpH7-B3 variant S324_14T/GpL16-k0 (Ho Ab) (antibody, human IgG1, kappa)
heavy: not shown
light: B1 light
notes: as for B4
B15: GpH7-B3 variant Y300_08L/GpL16-k0 (Ho Ab) (antibody, human IgG1, kappa)
heavy: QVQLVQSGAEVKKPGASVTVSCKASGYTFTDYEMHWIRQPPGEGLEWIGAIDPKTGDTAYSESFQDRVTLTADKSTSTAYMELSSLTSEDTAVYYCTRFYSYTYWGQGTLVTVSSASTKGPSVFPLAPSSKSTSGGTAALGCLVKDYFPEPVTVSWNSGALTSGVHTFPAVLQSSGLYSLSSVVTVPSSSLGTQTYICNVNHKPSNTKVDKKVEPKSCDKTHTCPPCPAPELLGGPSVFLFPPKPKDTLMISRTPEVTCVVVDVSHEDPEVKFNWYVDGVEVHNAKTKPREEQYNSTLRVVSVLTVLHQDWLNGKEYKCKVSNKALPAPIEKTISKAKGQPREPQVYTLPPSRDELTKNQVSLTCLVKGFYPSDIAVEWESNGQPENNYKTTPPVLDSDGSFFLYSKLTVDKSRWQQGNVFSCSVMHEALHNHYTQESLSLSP
light: B1 light
notes: as for B4
B16: GpH7-B3 variant T335_08L/GpL16-k0 (Ho Ab) (antibody, human IgG1, kappa)
heavy: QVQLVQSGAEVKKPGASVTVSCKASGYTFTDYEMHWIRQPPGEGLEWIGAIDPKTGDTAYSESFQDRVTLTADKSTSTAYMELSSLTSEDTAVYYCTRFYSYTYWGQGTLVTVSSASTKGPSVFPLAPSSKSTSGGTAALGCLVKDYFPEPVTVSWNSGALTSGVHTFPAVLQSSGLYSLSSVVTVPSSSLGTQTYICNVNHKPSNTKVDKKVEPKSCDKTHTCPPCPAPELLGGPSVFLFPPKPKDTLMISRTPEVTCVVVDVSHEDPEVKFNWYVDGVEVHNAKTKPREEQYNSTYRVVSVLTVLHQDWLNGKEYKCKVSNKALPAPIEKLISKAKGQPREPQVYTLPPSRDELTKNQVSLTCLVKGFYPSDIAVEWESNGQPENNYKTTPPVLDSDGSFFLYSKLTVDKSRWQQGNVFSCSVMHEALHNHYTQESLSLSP
light: B1 light
notes: as for B4
B17: GpH7-B3 variant Y296_20W/GpL16-k0 (Ho Ab) (antibody, human IgG1, kappa)
heavy: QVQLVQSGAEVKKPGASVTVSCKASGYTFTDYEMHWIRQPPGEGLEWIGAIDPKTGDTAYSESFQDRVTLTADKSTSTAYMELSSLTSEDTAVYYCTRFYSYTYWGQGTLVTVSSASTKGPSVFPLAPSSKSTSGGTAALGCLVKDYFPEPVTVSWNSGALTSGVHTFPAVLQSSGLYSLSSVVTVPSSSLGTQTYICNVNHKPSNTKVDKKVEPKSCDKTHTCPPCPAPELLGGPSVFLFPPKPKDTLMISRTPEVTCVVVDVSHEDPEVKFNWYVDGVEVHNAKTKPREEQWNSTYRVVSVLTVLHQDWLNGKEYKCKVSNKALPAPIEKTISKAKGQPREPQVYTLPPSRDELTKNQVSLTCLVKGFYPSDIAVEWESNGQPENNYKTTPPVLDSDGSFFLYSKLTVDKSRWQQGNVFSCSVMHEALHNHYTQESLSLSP
light: B1 light
notes: as for B4
B18: GpH7-B3 variant S239_10E/GpL16-k0 (Ho Ab) (antibody, human IgG1, kappa)
heavy: not shown
light: B1 light
notes: Homodimerized anti-glypican-3 antibody; the alteration stands in both H chains (GpH7-B3 = GpH7-G1d with K439E)
B19: GpH7-B3 variant T335_06M/GpL16-k0 (Ho Ab) (antibody, human IgG1, kappa)
heavy: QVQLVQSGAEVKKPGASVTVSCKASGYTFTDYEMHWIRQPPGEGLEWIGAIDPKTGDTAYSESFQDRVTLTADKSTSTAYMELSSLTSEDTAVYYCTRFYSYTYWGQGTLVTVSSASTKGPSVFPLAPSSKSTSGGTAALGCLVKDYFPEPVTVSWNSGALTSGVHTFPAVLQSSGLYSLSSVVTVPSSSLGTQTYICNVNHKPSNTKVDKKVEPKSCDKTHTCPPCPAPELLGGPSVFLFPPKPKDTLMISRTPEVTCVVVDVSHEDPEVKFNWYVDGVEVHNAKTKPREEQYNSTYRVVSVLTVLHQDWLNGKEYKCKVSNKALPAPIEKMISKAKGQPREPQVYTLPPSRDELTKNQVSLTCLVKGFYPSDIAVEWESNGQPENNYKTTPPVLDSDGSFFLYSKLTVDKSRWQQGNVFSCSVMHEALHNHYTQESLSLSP
light: B1 light
notes: as for B4

In the first test the target is T1, FcγRIIb extracellular domain with …. The test can be described thus: SPR (Biacore T100), antibody captured on antigen peptide chip, FcγR as analyte. Here is the method: (§1) Analysis of interaction between objective antibody and the FcγR was carried out using Biacore T100 (GE Healthcare). HBS-EP+ (GE Healthcare) was used as the running buffer, and the measurement temperature was set to 25° C. Chips produced by immobilizing the antigen peptide by the amine coupling method to a Series S Sencor Chip CM5 (GE Healthcare), or alternatively, chips produced by allowing preliminarily biotinylated antigen peptides to interact with and immobilize onto a Series S Sensor Chip SA (certified) (GE Healthcare) were used. Antibodies of interest were captured onto an antigen peptide-immobilized chip, and allowed to interact to each FcγR diluted with running buffer. To regenerate and repeatedly use the chip, the antibodies captured on the chip were washed off by reacting 10 mM glycine-HCl, pH 1.5.
(In general: SPR reads the build-up and loss of mass on a sensor chip optically.)
In the case of B1, the He/Con_2b is 57.2 relative binding, GpH7-A5/GpH7-B3/GpL16-k0 = 100.

Take B2: the He/Con_2b is 65.9 relative binding, GpH7-A5/GpH7-B3/GpL16-k0 = 100.

Turning to B3, the He/Con_2b is 218 relative binding, GpH7-A5/GpH7-B3/GpL16-k0 = 100.

For a further test, the target named is T2, FcγRIIIa extracellular domain with C-terminal His tag (human, UniProt P08637 17-208).
T2 construct: extracellular domain; also called FcgRIIIa; 3a; not shown: His tag attached to the C terminus
T2 sequence (P08637 17-208): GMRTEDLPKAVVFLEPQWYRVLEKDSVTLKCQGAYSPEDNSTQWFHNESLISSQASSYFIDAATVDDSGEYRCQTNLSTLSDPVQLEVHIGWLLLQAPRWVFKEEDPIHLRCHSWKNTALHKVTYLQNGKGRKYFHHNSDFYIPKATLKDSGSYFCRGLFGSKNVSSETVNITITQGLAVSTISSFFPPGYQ
The test is described as above. The protocol:
as §1
Turning to B1, the He/Con_3a is 21.5 relative binding, GpH7-A5/GpH7-B3/GpL16-k0 = 100.

With B2, the He/Con_3a was 17.9 relative binding, GpH7-A5/GpH7-B3/GpL16-k0 = 100.

In the case of B3, the He/Con_3a was 65 relative binding, GpH7-A5/GpH7-B3/GpL16-k0 = 100.

Another test deals with T3, FcγRIIIa (human, UniProt P08637 17-208).
T3 construct: extracellular domain; also called 3a; FcgRIIIa
T3 sequence (P08637 17-208): as above
The test can be described thus: SPR (Biacore), antibody captured on antigen-peptide chip, FcγR as analyte; binding of Ho Ab / binding of HoCon Ab GpH7-B3/GpL16-k0 x 100. The protocol:
as §1
Consider B4, for which the Ho/Con_3a is 119 relative to control = 100.

With B5, the Ho/Con_3a was 116 relative to control = 100.

In the case of B6, the Ho/Con_3a is 101 relative to control = 100.

In the case of B7, the Ho/Con_3a was 119 relative to control = 100.

For the molecule B8, the Ho/Con_3a was 114 relative to control = 100.

For the molecule B9, the Ho/Con_3a is 110 relative to control = 100.

As for B10, the Ho/Con_3a was 112 relative to control = 100.

Regarding B11, the Ho/Con_3a is 108 relative to control = 100.

Consider B12, for which the Ho/Con_3a is 114 relative to control = 100.

With B13, the Ho/Con_3a is 102 relative to control = 100.

Regarding B14, the Ho/Con_3a is 108 relative to control = 100.

Take B15: the Ho/Con_3a is 105 relative to control = 100.

As to B16, the Ho/Con_3a was 103 relative to control = 100.

With B17, the Ho/Con_3a is 146 relative to control = 100.

Turning to B18, the Ho/Con_3a was 252 relative to control = 100.

Regarding B19, the Ho/Con_3a is 107 relative to control = 100.

In the next test the target is T2, FcγRIIIa extracellular domain with …. The test can be described thus: SPR (Biacore); He/Con_3a (FcγRIIIa) divided by He/Con_2b (FcγRIIb).
For the molecule B1, the “He_3a/2b (IIIa/IIb)” value came out at 0.37 ratio.

Regarding B2, the “He_3a/2b (IIIa/IIb)” value came to 0.27 ratio.

As to B3, the “He_3a/2b (IIIa/IIb)” value was found to be 0.3 ratio.
